This note sets out measurements from the nanobody polyreactivity screen of Harvey et al. (2022).

This data set is described as follows: yeast display, Sf9 membrane polyspecificity reagent, FACS + sequencing; frameworks hold sequencing errors. The method, boiled down:
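Using colony PCR, genes from sorted yeast display clones were amplified, then sequenced on MiSeq at 2 × 250 and filtered by CDR length. The clones had been stained with 10% biotinylated, detergent-solubilized Sf9 membrane reagent for 1 hour at 4 °C and sorted by FACS into low and high (top ~1%) gates on anti-HA and streptavidin fluorescence. Polyreactivity labels come from the gate of origin.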
In the case of “QVQLGESGGGLVQAGGSLRLSCAASGRIFYLNVMGWYRQAPGKERELVAAITRRDVTTYADSVKGRFTISRDNAKNTVYLQMNSLKPEDTAVYYCNAVYYNWIGFDYWGQGTQVTVSS”, the “polyreactivity (PSR sort gate)” value is “low polyreactivity”.

Take “QVQLVESGGGLVQAGGSLRLSCAASGYTFGTYDKGWYRQAPGKERELVAAISIGGSTNYADSVKGRFTISRDNAKNTVYLQMNSLKPEDTAVYYCAAEVNVGTLLLSVIVEDGDYWGQGTQVTVSS”: the “polyreactivity (PSR sort gate)” value is listed as “low polyreactivity”.

Regarding “QVQLVESGGGLVQAGGSLRLSCAASGGIFKQYAMGWYRQAPGKERELVAAITWSGGSTYYADSVKGRFTISRDYAKNTVYLQMNSLKPEDTAVYYCAKDYVLFQYVDFQDDDYWGQGTQVTVSS”, the “polyreactivity (PSR sort gate)” value is reported as “low polyreactivity”.

For the sequence “QVQLVESGGGLVQAGGSLRLSCAASGNTFYWNAMGWYRQAAGKERELVAAISTTGVSTYYADSVKGRFTISRDNAKNTVYLQMNSLKPEDTAVYYCATVSYYDRYDYDYWGQGTQVTVSS”, the “polyreactivity (PSR sort gate)” value is given as “low polyreactivity”.

Turning to “QVQLVESGGGLVQAGGSLRLSCAASGGISSSNAMGGYRQAPGKERELVAGINSRGGSTYADSVKGRFTISRDNAKNTVYLQMKSLKPEDTAVYYCAAAPTYKWRRKNYDYWGQGTQVTVSS”, the “polyreactivity (PSR sort gate)” value is given as “high polyreactivity”.

On to “QVQLVESGGGLVQAGGSLRLSCAASGYTLFRNAMGWYRQAPGKERELVAAISRSGARTYYADSVKGRFTISRDNAKTTVYLQMNSLKPDYTAVYYCAAVIKWTKDDYWGQGTQVTVSS”, for which the “polyreactivity (PSR sort gate)” value is “high polyreactivity”.

With “QVQLVESGGGLVQAGGSLRLSCAASGSTLSFYAMGWYRQAPGKERELVAAISYSTGTTYYADSVKGRFTISRDNAKNTVYLQMNSLKPEDTAVYYCAVYWQHNSTRYYYWGQGTQVTVSS”, the “polyreactivity (PSR sort gate)” value was “high polyreactivity”.

Take “QVQLVESGGGVVQAGGSLRLSCAASGITFSYYTMGWSRQAPGKERELVAAINWTGGDTYYADSVKGRFTISRDNAKNTVYLQMNSLNPEDTAVYYCNADYPYFYRFTAEYDYWGQGPQVTVSS”: the “polyreactivity (PSR sort gate)” value is on record as “low polyreactivity”.

As for “QVQLVESGGGLVQAGGSLRLSCAASGSIFYLYAMGWYRPAPGKERELVAAISSGGSTYYADSVKGRFTISRDNAKNTVYLQMNSLKPEDTAVYYCNADSYYYPYDYWGQGTQVTVSS”, the “polyreactivity (PSR sort gate)” value was “low polyreactivity”.

For the sequence “QVQLVESGGGLVQAGGSLRLICAASGYTFALYAIGWYRQATGKERELVAAITDSDGSTYADSVKGRFTISRDNAKNTFYLQMNSLKQEDTAVYYCAARDPHLQGYSYLSYLTMDYWGQGTQVTVSS”, the “polyreactivity (PSR sort gate)” value is reported as “low polyreactivity”.

Take “QDQLVESGGGLVQAGGSLRLSCAASGSTFTKYAMGWYRQAPGKERELVAAIISYRVGSTYYADSVKGRFTISRDNAKINVYLVMKSLIPEDTAAFYCAAVWKPPGFSTMYYWGQGTEVTVSS”: the “polyreactivity (PSR sort gate)” value is “high polyreactivity”.

Regarding “QVQLVESGGGLVQAGGSLRLSCAASGRIFNLYAMGWYRPAPGKERELVAAISWSGGSTYYADSVKGRFTITRDNAKNTVYLQMNSLKPEDTAVYYCKVVSTYKHTYDFDYWGQGTQVTLSS”, the “polyreactivity (PSR sort gate)” value is given as “high polyreactivity”.

“QVQLVESGGGLVQAGGSLSLSCAASGITFIHNAMGLYIQAPGKERELVAAITPSDGSTYYADSVKGRFTISRDNAKNTVFLQMNSLKPEDTAVYYCAARGRHSGYYSVPYYYWGQGTQVTVSS”: the “polyreactivity (PSR sort gate)” value is “low polyreactivity”.

Turning to “QVQLVESGGGLVQAGGSLRLSCAASGSTIEDYAMGWYRQAPGKERELVAAITSGDSTNYADSVKGRFTISRDNAKNTVYLQMNSLKPEDTAVYYCAARLRYSFWYWDDYWGQGTQVTVSS”, the “polyreactivity (PSR sort gate)” value was “high polyreactivity”.

With “QVQLVESGGGLVQAGGSLRLSCAASGFTFIRNAMGWYRQAPGKERELVAAISKRGGSTNYADSVKGRFTISRDNAKTTVYLLMNSLKPEDTAVYYCAADVDTRSSSGYWGQGTQVTVSS”, the “polyreactivity (PSR sort gate)” value is “low polyreactivity”.

For “QGQLVESGGGLVQAGGSLRLSCAASGFIFRYYTMGWYRQAPGKERELVATITSGGSTYYADSVKGRFTISRDNAKNTVYLQMNSLKPEDTAVYYCNADTLGGKYVYQDRRGFDYWGQGTQVSVSS”, the “polyreactivity (PSR sort gate)” value is “high polyreactivity”.

Consider “QVQLVESGGGLVQAGGSLRLSCAASGSIFRGNAMGWYRQAPGKEMELVAAINKSGGSTYYADSVKGRFTISRDNAKNTVYLQMNSLKPEDTAVYYCAAVYKRLQPYGYWGQGTQVTVSS”, for which the “polyreactivity (PSR sort gate)” value is listed as “high polyreactivity”.

With “QVQLVESGGGLVQAGGSLRLSCPASGSTQHYYVKAWYRQAQGKERELVAAITWSGVSTYYADSVKGRFTISRDNAKNTVYLQMNSLKPEDTAVYYCAKRIFTSARLNYWGKGTQVTVSS”, the “polyreactivity (PSR sort gate)” value is recorded as “high polyreactivity”.

As for “QVQLVESGGGLVQAGGSLRLSCAASGSIFKINAMGWYRQAPGKERELVATITWSTGTSYYADSVKGRFTISRDNAKNTVYLQMNSLKPEDTAVYYCATDGDSTKLDYWGQGTQVTVSS”, the “polyreactivity (PSR sort gate)” value is listed as “low polyreactivity”.

In the case of “QVQLGESGGGLVQAGGSLRLSCAASGSTFVDNTMGWYRQAPGKERELVAAITRSGGSTYYADSVKGRFTISRDNAKNTVYLQMNSLNPEDTAVYYCATYPYSPYFYVYVEPYVYWGQGTQVTVSS”, the “polyreactivity (PSR sort gate)” value was “low polyreactivity”.

Consider “QVQLVESGGGLVQAGGSLRLSCAASGFTYRRYAMGWYRQAPGKERELVAAITWSGGSTYYADSVKGRITISRDNAKNTVYLQMNSLKPEDTAVYYCNKAYSPLYFSYNYWGQGTQVTVSS”, for which the “polyreactivity (PSR sort gate)” value was “high polyreactivity”.

“QVQLVESGGGLVQAGGSLRLICAASGSTFFYYAMGWYRQAPGKERELVARISGGGSTNYADSVKGRFTISRDNAKNTVYLKMNSLNPEDTAVYYCAADRYHYYRYSYGRYGYWGQCTQVTVSS”: the “polyreactivity (PSR sort gate)” value is on record as “high polyreactivity”.

As for “QVQLVESVGGLVQAGGSLRLSCAASGFIQGAYAMGWYRPAPGKERELVAAITSSGGSTYYADSVKGRFTISRDNAKNTVYLQMNSLKPEDTAVYYCNTVYVYGPEYDYWGQGTQVTVSS”, the “polyreactivity (PSR sort gate)” value is on record as “high polyreactivity”.

For “QVQLGESGGGLVQAGGSLRLSCAASGRIFAGYAMGWYRQAPGKERELVATISSGGSTYYADSVKGRFTISRDNAKNTVYLQMHSLKPEDTAVYYCAAEYATRQYSSYYNLFNYCGQGTQVTVSS”, the “polyreactivity (PSR sort gate)” value is “low polyreactivity”.

In the case of “QVQLVESGGGLVQAGGSLRLSCAASGRSFCYNAMGWYSQAPGKERELVAGISSSGGTTYYADSVKGRFTISRDKAKNTVYLQMNSLKPEDTAVYYCAKRFSLLSTVRWGRYNYWGQGTQVTVSS”, the “polyreactivity (PSR sort gate)” value is listed as “high polyreactivity”.

In the case of “QVQLVESGGGIVQAGGSLRLSCAASGLIFSVNAMGWYRQAPGKERELVASISVSGGSTYYADSVKGRFTISRDNAKNTVYLQMNSLKPEDTAVYYCNTVPLAGEYSTDLRYDYWGQGTQVTVSS”, the “polyreactivity (PSR sort gate)” value is “low polyreactivity”.

As for “QVQLVESGGGLVQAGGSLRLSCAASGSTIVVNAMGWYRQAPGKERELVAAISSNGGSYYADSVKGRFTISRDNAKNTVYLQMNSLKPEDTAVYYCAADSREEGDYWGQGTQVTVSS”, the “polyreactivity (PSR sort gate)” value is listed as “low polyreactivity”.

As to “QVKLVESGGGLVQAGGSLRLSCAASGSIFQGYAMGWYRQAPGKERELVAAISGRGGSTYYADSVKGRFTISRDNAKNTVYLQMNSLKPEDTAVYYCNAPRYYWISFARWPASYYYWGQGTQVTVSS”, the “polyreactivity (PSR sort gate)” value is “high polyreactivity”.

Take “QVQIVESGGGLVQAGGSLRLSCAASGSTFTRYTMGWYRQAPGKERELVAAISGRGGSTYYADSVKGRFTISRDNAKNTVYLQMNSLKPEDTAVYYCNKVYWRRGSLEYWGQGTQVTVSS”: the “polyreactivity (PSR sort gate)” value is given as “high polyreactivity”.

For “QVQLVESGGGLVQAGGSLRLSCAASGFTFYRYAMGWYRQAPGKERELVAAITKSSGRTYYADSVKGRFTISRDNAQITVYLQINSLKPEDTAVYYCNAYYVALPPNMDYWGQGTQVTVSS”, the “polyreactivity (PSR sort gate)” value is listed as “high polyreactivity”.
